Laboratory results taken from patent US20140274782A1, “AFFINITY REAGENTS AND METHODS FOR DETECTION, PURIFICATION, AND PROTEOMIC ANALYSIS OF METHYLATED PROTEINS” (The Board of Trustees of the Leland Stanford Junior …, priority 2013, published 2014).

T1: G9a and GLP (Homo sapiens, UniProt Q96KQ7+Q9H9B1)
T1 sequence (Q96KQ7 2-1210 limits assumed): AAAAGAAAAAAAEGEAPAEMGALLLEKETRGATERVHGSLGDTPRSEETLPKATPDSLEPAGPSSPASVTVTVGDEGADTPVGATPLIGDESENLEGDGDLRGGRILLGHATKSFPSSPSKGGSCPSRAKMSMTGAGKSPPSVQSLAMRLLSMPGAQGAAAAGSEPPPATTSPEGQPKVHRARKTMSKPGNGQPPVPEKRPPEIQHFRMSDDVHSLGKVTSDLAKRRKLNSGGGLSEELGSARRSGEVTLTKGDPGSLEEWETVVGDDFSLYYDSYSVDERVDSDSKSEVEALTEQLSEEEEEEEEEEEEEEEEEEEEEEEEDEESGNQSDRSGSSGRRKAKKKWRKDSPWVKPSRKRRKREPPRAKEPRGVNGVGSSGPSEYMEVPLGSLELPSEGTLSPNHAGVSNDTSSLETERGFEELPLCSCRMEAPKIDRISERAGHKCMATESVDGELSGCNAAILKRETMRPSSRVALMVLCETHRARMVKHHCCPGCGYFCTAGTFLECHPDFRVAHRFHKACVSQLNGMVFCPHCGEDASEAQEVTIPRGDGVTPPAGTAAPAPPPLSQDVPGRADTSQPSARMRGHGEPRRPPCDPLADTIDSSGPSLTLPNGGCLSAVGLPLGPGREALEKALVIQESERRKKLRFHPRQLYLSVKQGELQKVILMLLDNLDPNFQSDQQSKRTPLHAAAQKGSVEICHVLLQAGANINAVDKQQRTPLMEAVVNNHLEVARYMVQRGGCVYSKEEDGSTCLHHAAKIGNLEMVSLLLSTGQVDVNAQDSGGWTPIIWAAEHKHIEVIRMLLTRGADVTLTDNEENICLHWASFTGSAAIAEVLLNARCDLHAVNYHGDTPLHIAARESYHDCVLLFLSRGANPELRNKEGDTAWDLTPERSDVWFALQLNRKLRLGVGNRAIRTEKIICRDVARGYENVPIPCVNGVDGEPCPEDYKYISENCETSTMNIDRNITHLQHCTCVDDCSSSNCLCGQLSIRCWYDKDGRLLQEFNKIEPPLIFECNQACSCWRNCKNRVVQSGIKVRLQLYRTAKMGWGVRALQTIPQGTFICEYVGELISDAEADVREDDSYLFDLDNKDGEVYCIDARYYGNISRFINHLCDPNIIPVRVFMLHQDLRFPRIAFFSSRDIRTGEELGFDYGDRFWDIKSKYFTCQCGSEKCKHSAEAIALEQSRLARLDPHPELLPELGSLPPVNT
T1 sequence (Q9H9B1 2-1298 limits assumed): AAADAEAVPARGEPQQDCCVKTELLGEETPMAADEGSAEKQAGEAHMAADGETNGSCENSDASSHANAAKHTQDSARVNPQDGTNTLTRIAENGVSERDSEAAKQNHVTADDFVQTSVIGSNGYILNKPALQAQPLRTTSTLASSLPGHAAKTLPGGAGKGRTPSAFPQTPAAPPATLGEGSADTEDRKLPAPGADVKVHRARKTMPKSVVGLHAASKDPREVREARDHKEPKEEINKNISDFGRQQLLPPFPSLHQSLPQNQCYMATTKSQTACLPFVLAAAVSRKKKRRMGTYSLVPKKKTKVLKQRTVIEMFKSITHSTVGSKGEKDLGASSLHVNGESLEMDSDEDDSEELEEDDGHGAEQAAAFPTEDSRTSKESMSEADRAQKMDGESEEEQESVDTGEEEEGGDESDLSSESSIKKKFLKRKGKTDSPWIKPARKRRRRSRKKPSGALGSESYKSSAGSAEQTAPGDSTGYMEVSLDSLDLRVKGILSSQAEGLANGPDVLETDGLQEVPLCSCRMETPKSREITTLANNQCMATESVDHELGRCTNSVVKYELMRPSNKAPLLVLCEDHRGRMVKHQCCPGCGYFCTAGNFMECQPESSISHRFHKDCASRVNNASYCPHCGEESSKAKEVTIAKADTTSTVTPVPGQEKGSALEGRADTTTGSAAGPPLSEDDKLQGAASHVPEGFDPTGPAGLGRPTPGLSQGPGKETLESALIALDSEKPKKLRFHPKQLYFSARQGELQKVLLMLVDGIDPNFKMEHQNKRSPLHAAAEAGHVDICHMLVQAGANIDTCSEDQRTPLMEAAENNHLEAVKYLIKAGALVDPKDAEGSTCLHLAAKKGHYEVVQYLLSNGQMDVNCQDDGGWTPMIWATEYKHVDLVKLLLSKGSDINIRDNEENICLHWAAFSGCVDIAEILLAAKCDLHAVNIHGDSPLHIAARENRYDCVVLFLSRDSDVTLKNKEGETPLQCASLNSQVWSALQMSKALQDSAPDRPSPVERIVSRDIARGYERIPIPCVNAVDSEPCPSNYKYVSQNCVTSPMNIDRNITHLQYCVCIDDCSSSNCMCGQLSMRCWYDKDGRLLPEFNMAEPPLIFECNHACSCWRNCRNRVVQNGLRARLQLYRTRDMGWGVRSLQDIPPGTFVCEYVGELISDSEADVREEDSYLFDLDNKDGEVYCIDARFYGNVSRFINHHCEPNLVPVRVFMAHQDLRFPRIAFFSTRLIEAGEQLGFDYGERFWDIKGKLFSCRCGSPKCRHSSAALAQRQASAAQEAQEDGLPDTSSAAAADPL


How the values were obtained:
[1] = tested on: 3×MBT domain of L3MBTL1; assay: Triple SILAC pull-down, 3xMBT/3xMBTD355N ratio (cytoplasmic, nuclear and chromatin fractions of 293T cells); assay type: binding, human; conditions: for 3xMBT/D355N UNC Heavy: experiment with UNC0638 in heavy SILAC media; for 3xMBT/D355N UNC Light: experiment with UNC0638 in light SILAC media;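 on all read-outs here: proteins quantified with MaxQuant, requiring at least two unique peptides and quantification in both label directions, normalized to the mean of proteins from a digested loading control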
[2] = target: T1, G9a and GLP; assay: Triple SILAC pull-down after UNC0638 treatment of 293T cells, DMSO/UNC0638 ratio of protein captured by 3×MBT; assay type: cell-based; set-up: cells were treated for 24 hours with UNC0638 at 2.5 μM or DMSO vehicle control; endogenous in cells; host or cells: HEK 293T; conditions: for Relative to UNC0638 UNC Heavy: UNC0638 in heavy SILAC media; for Relative to UNC0638 UNC Light: UNC0638 in light SILAC media; for Relative to UNC0638 Average: average of UNC Light and UNC Heavy experiments;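 on all read-outs here: mass spectrometry (Q-Exactive) SILAC quantitation, DMSO/UNC0638 ratio computed after subtracting 3×MBTD355N mutant pull-down background, only proteins with at least twofold 3×MBT over mutant signal considered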
[3] = SILAC ratio, pull-down 3xMBT vs 3xMBTD355N
[4] = SILAC ratio DMSO/UNC0638 of protein pulled down with 3xMBT
[5] = SILAC ratio 3xMBT vs 3xMBTD355N pull-down, 293T cells, all values in log base 2
[6] = SILAC ratio DMSO relative to UNC0638, pull-down with 3xMBT, all values in log base 2

Molecule | 3xMBT/D355N UNC Heavy [1, 3] | 3xMBT/D355N UNC Light [1, 3] | Relative to UNC0638 UNC Heavy [2, 4] | Relative to UNC0638 UNC Light [2, 4] | Relative to UNC0638 Average [2] | Candidate G9a/GLP target ([2]; reduced association with 3xMBT after UNC0638 treatment) | 3xMBT/D355N UNC Heavy [1, 5] | 3xMBT/D355N UNC Light [1, 5] | Relative to UNC0638 UNC Heavy [2, 6] | Relative to UNC0638 UNC Light [2, 6] | Relative to UNC0638 Average ([2]; all values in log base 2)
CYFIP1 (protein, UniProt Q7L576 1-1253, looked up) Cytoplasmic FMR1-interacting …: MAAQVTLEDALSNVDLLEELPLPDQQPCIEPPPSSLLYQPNFNTNFEDRNAFVTGIARYIEQATVHSSMNEMLEEGQEYAVMLYTWRSCSRAIPQVKCNEQPNRVEIYEKTVEVLEPEVTKLMNFMYFQRNAIERFCGEVRRLCHAERRKDFVSEAYLITLGKFINMFAVLDELKNMKCSVKNDHSAYKRAAQFLRKMADPQSIQESQNLSMFLANHNKITQSLQQQLEVISGYEELLADIVNLCVDYYENRMYLTPSEKHMLLKVMGFGLYLMDGSVSNIYKLDAKKRINLSKIDKYFKQLQVVPLFGDMQIELARYIKTSAHYEENKSRWTCTSSGSSPQYNICEQMIQIREDHMRFISELARYSNSEVVTGSGRQEAQKTDAEYRKLFDLALQGLQLLSQWSAHVMEVYSWKLVHPTDKYSNKDCPDSAEEYERATRYNYTSEEKFALVEVIAMIKGLQVLMGRMESVFNHAIRHTVYAALQDFSQVTLREPLRQAIKKKKNVIQSVLQAIRKTVCDWETGHEPFNDPALRGEKDPKSGFDIKVPRRAVGPSSTQLYMVRTMLESLIADKSGSKKTLRSSLEGPTILDIEKFHRESFFYTHLINFSETLQQCCDLSQLWFREFFLELTMGRRIQFPIEMSMPWILTDHILETKEASMMEYVLYSLDLYNDSAHYALTRFNKQFLYDEIEAEVNLCFDQFVYKLADQIFAYYKVMAGSLLLDKRLRSECKNQGATIHLPPSNRYETLLKQRHVQLLGRSIDLNRLITQRVSAAMYKSLELAIGRFESEDLTSIVELDGLLEINRMTHKLLSRYLTLDGFDAMFREANHNVSAPYGRITLHVFWELNYDFLPNYCYNGSTNRFVRTVLPFSQEFQRDKQPNAQPQYLHGSKALNLAYSSIYGSYRNFVGPPHFQVICRLLGYQGIAVVMEELLKVVKSLLQGTILQYVKTLMEVMPKICRLPRHEYGSPGILEFFHHQLKDIVEYAELKTVCFQNLREVGNAILFCLLIEQSLSLEEVCDLLHAAPFQNILPRVHVKEGERLDAKMKRLESKYAPLHLVPLIERLGTPQQIAIAREGDLLTKERLCCGLSMFEVILTRIRSFLDDPIWRGPLPSNGVMHVDECVEFHRLWSAMQFVYCIPVGTHEFTVEQCFGDGLHWAGCMIIVLLGQQRRFAVLDFCYHLLKVQKHDGKDEIIKNVPLKKMVERIRKFQILNDEIITILDKYLKSGDGEGTPVEHVRCFQPPIHQSLASS | 1.93 log base 2 | 1.58 log base 2 | 0.55 log base 2 | 0.36 log base 2 | 0.46 log base 2 | ✓ |  |  |  |  | 
ZRANB2 (protein, UniProt O95218 1-330, looked up) Zinc finger Ran-binding …: MSTKNFRVSDGDWICPDKKCGNVNFARRTSCNRCGREKTTEAKMMKAGGTEIGKTLAEKSRGLFSANDWQCKTCSNVNWARRSECNMCNTPKYAKLEERTGYGGGFNERENVEYIEREESDGEYDEFGRKKKKYRGKAVGPASILKEVEDKESEGEEEDEDEDLSKYKLDEDEDEDDADLSKYNLDASEEEDSNKKKSNRRSRSKSRSSHSRSSSRSSSPSSSRSRSRSRSRSSSSSQSRSRSSSRERSRSRGSKSRSSSRSHRGSSSPRKRSYSSSSSSPERNRKRSRSRSSSSGDRKKRRTRSRSPERRHRSSSGSSHSGSRSSSKKK |  |  |  |  |  |  | 0.71 log base 2 | 2.59 log base 2 | −0.09 log base 2 | −0.02 log base 2 | −0.06 log base 2
